Assay: soluble on expression in E. coli; label from the status in PepcDB or PDB records

Sequence	soluble on expression in E. coli
MKDESERVSNRLPMDESREHLMVKVARMTYQQELNQSEIAAETGLNRWQVSRLLQEARDLGIVRIEIIPRSPRRPDLETALQQTFNLNDSVVVSSDGEQAQSLDTVAQAAGQYIASIKSNGATVGVSWGRTMGAVAHWLPLQWSDGGEVVQINGTVAPISGVTYHNDVAGIFARKAGARLVPLPVPAIVGQRVTREVLERDRIVADVLTKARSAQILIFSCGSLSEESVLVRSGNILRDELATLLSKGAVGDVLGRFIDVNGEIVDAELDARTIGLSLSDLKTSGKAIGIAAGSEKFNVVLGVLRAGLVNVLVTDEATATFALEHA	not soluble
MKDFLRLELPVLPLRNTVVLPHTTTGVDVGRLKSKRAVEEALSADRLLFLVTQKDPEVDDPAPEDLYAVGTLAVVKQAMRLPDGTLQVMVEARSRARLLSYVAAPYLRAVGEAIPEPPLKDPELARVLVNEVQEAFERYLQNHKTLRLDRYQQEAVKSTRDPAILADLVAHHATWTLEEKQTILETPEVEERLKRVLALLLRDLERFELDKKIAARVKEQMDQNQREYYLREQMKAIQKELGGGEDFLTEIEELRERIEKKGMPEPVKEKALKELKRLERMQPGSPEATVSRTYLDWLLEVPWTEADPEVLDISVTKRVLDEDHYGLKEVKERILEYLAVRQLTQGKEVKGHAPILCFVGPPGVGKTSLGKSIARSMNRRFHRISLGGVRDEAEIRGHRRTYIGALPGKIIQGMKQVGVVNPVFLLDEIDKLSSDWRGDPAAALLEVLDPEQNHTFTDHYLDVPYDLSKVFFITTANTLSTIPRPLLDRMEVIEIPGYTLHEKRAIARYFRWPFQVKEAGLEGRLEITDRAIERIVQEYTREAGVRNLDRELSKVARKAAKDYLEKPWEGVRVVDAEDLEAYLGVPKYRPDRAEKEPQVGAAQGLAWTPYGGTLLTIEAVAVPGTGKVNLTGNLGEVMKESDHAVLTYLRVHREEWGLPEGFHKDYDLHIHVPEGATPKDGPSAGITIATALASALTGRPVRMDIAMTGEITLRGRVLPIGGVKEKLLAAHQAGIHRVILPKENAAELKEVPEEILKDLEIHFVEEVGEVLKLLLLPPPPPPAVQPDRPQPGVGA	soluble
MKDNEIISLFELRDEHAIEALSDKYHPYCYKIAWNLLTNKEDSEECLNDTWFSVWSLIPPKKPSVLSHFCGRITRNLSIDRLRKKYADRRPDLHMADVLGEMDHLSVTYTIEDQLAEKELLEIINDFLGKMNAEDRDIFVRRYWFFDSIAAIAKRHAMSVGSVKMNLYRSRKKLLKVLKKEGKHL	not soluble
MKDQGRSPRKRTGGRRRPNHKKKKHELGKDTVETQVGEQRLKTVDSRGNTQKVRAVKTDVASIADGAETIEATIENVVENPSNPNYARRNIITKGAILETSEGQARVTSRPGQHGQVNAVLVEAAALEHHHHHH	soluble
MKEIELKLKGEINRLTNKTFKFDERVGEGWFSAVYFLKTREIIEEFRPKSVVTMQFFQKENAVLCGTDEVIALLQTFAKNPEELEINSLKDGDKISPFETVLTIDGPYENFGFLEGVIDGILARRTSVATNVYNVVQAARSVDKEKPVIFMGDRDDHYTQQAGDGYAAYIGGMSAQATHAMNEWWGKSGMGTMPHALIQMFNGDVVEAAKAYHKKFPEDELVVLIDYNNDVITDALRVAREFGSTLKGVRVDTSRTMIDQYFIRHPEVLGTFDPRGVNPSLVFALRKALDEEGFQHVDIVVTGGFDEKRIREFEAQNVPVDIYGVGSSLLKMNIGFTGDNVELNGKPEAKAGRKYRPNPRLERVQLEKREDM	not soluble
MKEKIPFYNEKEFHDMVKKTKKGTFSGWYIINKNNNSVEFSGSFNRQFKLNKPVIPVNTEYVTRKEFNEYKDSNDQRLTKIETELKSQGQRIQVVEDKVDRLTEVVMVQSQQIKTQGEAMNARMDRFESLVLKSLESIGNTLTDFGKRLDVIETRLDKIDPPK	soluble
MKELRVKNQYEKHKEVEAAQGVKILGKDLEKTLAGLPLLVAYKDDEIPVLKDELIHELKQTLNAIKLEEKGVYVQASTLGSLEALLEFLKTSEVPYAGINIGPVHKKDVMKASVMLEHDPQYAVILAFDVRIERDAQEMADSLGVRIFSAEIIYHLFDAFTKYRQDYKKQKQEEFKHIAVFPCKMKILPQYIFNSRDPIVIGVTVEAGQVKQGTPMCVPSKNFVDIGIVTSIEINHKQVDVAKKGQEVCVKIEPIPGESPKMFGRHFEATDILVSKISRQSIDALKDWFRDEMQKSDWQLIVELKKVFEII	soluble
MKELTNEELRGIQLEQLKYIDRICRENGIEYTLAGGSLIGAIRHGGYIPWDDDIDIELTRPHYDHLISVLMDQLPNEKYALLHYKVRETYLPFAKLYDTRTSFTSKIDNLNRGTGVFLDIFPMDILPDNEEERQVFKKEFLKKAIQLTASNPHGLDFASSSKKIYFWGKLVLWMPQHIRFYGKYRILAEKLDEFMQKYRNSDNQLISYLYTGYKKAIFPKEIWEEYEDVKFEGLTARKLKNHEEYLTRQYGDYMKLEHHHHHH	not soluble
MKETDLRVIKTKKALSSSLLQLLEQQLFQTITVNQICDNALVHRTTFYKHFYDKYDLLEYLFNQLTKDYFARDISDRLNHPFQTMSDTINNKEDLREIAEFQEEDAEFNKVLKNVCIKIMHNDIKNNRDRIDIDSDIPDNLIFYIYDSLIEGFIHWIKDEKIDWPGEDIDNIFHRLINIKIK	soluble
MKEYNYIFGPIPSRRMGNSLGISSIEKRSCTYSCVYCQLGRTKNLMKEPKKFFKTEDILEEFKEYLKEDVDIDVVTVVGEGEPTLSDDLEELILGLKAITDKPVAVITNGSMLVYEKVRKALKAADIVLPSLDAGDEETFRKINRPNAKIDFNKITEALVQFSKEYNGELWMETMIVKGFNDKTEELYAIRKILDRIDYDRLYINTPVRPPAESYVEEPSKEKLDEVIRILRGTSIQMLSSGTFFSEITDDFEAIKSIISRHPMNKFEVESFLNSRKCRDKEEVLRKLKNHADIDVVSYKNYTTYRLK	not soluble
MKFAIIIPFYNAEKRLALSIDSIIKQTYSFLKHVEVLLINDGSTDRSSAIAHSYAEKYPSNIRVFDVPNGGPSKARNIGIHNVQEDTDFVGFLDADDLLSPNMLFSMVNFLEKSAVNMLVPAFYYLDDFGKKQKISPHKLNDRFTNGNRVVAIEKEPQAIHFYIGGTFFRFESLKQFVFDETLNFAEDQLLITKFLLENRSYGLIADAGYYYYRDLKQKGSLVSSAWKQPERYTPFLQKVYQTYLTNSKEIFGEVIPYVQYLIAYHAKLFFYKENIYFKEVLNEQEQEIFVRELQKILQEVGPEMIVALDTPLVVKEMMLSILRNGWPVQFKTAELEEVPLVTVKENYRPGKAVTVELLLEEARETLSDGGEFFASTSVGTAQTKVVKRKTAQTIWDIVVREEGTLEKVVTRLKPYQLKVQVFYQDKNQKITMTDLNVIKSVLGKLKRNKALKRKFKQGGVSLEHHHHHH	soluble
MKFAVIGNPISHSLSPLMHHANFQSLNLENTYEAINVPVNQFQDIKKIISEKSIDGFNVTIPHKERIIPYLDDINEQAKSVGAVNTVLVKDGKWIGYNTDGIGYVNGLKQIYEGIEDAYILILGAGGASKGIANELYKIVRPTLTVANRTMSRFNNWSLNINKINLSHAESHLDEFDIIINTTPAGMNGNTDSVISLNRLASHTLVSDIVYNPYKTPILIEAEQRGNPIYNGLDMFVHQGAESFKIWTNLEPDIKAMKNIVIQKLKGELLEHHHHHH	soluble
MKFDPQKYRELAEKDFEAAWKAGKEILAERSPNELYPRVGFSFGKEHPLFATIQRLREAYLSIGFSEVVNPLIVEDVHVKKQFGREALAVLDRCFYLATLPKPNVGISAEKIRQIEAITKREVDSKPLQEIFHRYKKGEIDGDDLSYLIAEVLDVDDITAVKILDEVFPEFKELKPISSTLTLRSHMTTGWFITLSHIADKLPLPIKLFSIDRCFRREQGEDATRLYTYFSASCVLVDEELSVDDGKAVAEALLRQFGFENFRFRKDEKRSKYYIPDTQTEVFAFHPKLVGSSTKYSDGWIEIATFGIYSPTALAEYDIPYPVMNLGLGVERLAMILYGYDDVRKMVYPQIHGEIKLSDLDIAREIKVKEVPQTAVGLKIAQSIVETAEKHASEPSPCSFLAFEGEMMGRNVRVYVVNENENTKLCGPAYANEVVVYKGDIYGIPKTKKWRSFFEEGVPTGIRYIDGFAYYAARKVEEAAMREQEEVKVKARIVENLSDINLYIHENVRRYILWKKGKIDVRGPLFVTVKAEIE	soluble
MKFDRHRRLRSSATMRDMVRENHVRKEDLIYPIFVVEKDDVKKEIKSLPGVYQISLNLLESELKEAYDLGIRAIMFFGVPNSKDDIGTGAYIHDGVIQQATRIAKKMYDDLLIVADTCLCEYTDHGHCGVIDDHTHDVDNDKSLPLLVKTAISQVEAGADIIAPSNMMDGFVAEIRRGLDEAGYYNIPIMSYGVKYASSFFGPFRDAADSAPSFGDRKTYQMDPANRLEALRELESDLKEGCDMMIVKPALSYLDIVRDVKNHTNVPVVAYNVSGEYSMTKAAAQNGWIDEERVVMEQMVSMKRAGADMIITYFAKDICRYLDK	not soluble
MKFVSIISNSRMLFLFLLITAKSDRESCLYIFDENIRGVNITPTFVSTRAKGLFDLFIKKLRSRVALSFFLLKRKIKLEETIVYGADHLSHSLLFLKKCSFFLIEDGTENYHQKSYKRSWKNKLFSIPKFGMYKNVKRIYLTKRENVPDCIKSKVEYINIKDLWFKKTEEEKLEILYLLGIDMKKIQLLIGEPFILFTQPLSEDYILTENEKIELYKSIIDKYDASKLVIKPHPREKTDYSRIFPNVKVFDETYPSEVLDILEVKFSRVITLFSTAAFSYPKEKVDFYGTKIHPKLLAKFGNIEYE	not soluble
MKGEIEGITDDGIGVRVIDKNGFEHKIEMLFDGEIVYHHQKGYPDNPKERTNEEDESVAQARRFARYHVYREKGYDTVPNPDNPDRIAAVLLALIGLDDQQFDQYFGMLYEQMASHERADVAPVLDLPQEVYSEEFIVYKQNVYLEESLDAMQDQLTQPATEVFGEENLQEFLQETGDGLVAKARSLVGGGTDEDEDASEEPSIPEADLSIADVSGLDTMYSTPEGYKTIEGEDPVSREPDARIETLPMGYTREQFRYHVGHNLICQIRDCFISMGVEPPAQYRLLGHGKFKYSAKYRDFDFYPDYWDYEANIPGYSSPV	not soluble

Reference: the DeepSol protein solubility set
